Target: PRKAR2A, regulatory subunit of protein kinase A (NanoBiT positive control) (UniProt P13861)
Test: split reporter

Sequence of PRKAR2A, regulatory subunit of protein kinase A (NanoBiT positive control) (P13861 whole entry): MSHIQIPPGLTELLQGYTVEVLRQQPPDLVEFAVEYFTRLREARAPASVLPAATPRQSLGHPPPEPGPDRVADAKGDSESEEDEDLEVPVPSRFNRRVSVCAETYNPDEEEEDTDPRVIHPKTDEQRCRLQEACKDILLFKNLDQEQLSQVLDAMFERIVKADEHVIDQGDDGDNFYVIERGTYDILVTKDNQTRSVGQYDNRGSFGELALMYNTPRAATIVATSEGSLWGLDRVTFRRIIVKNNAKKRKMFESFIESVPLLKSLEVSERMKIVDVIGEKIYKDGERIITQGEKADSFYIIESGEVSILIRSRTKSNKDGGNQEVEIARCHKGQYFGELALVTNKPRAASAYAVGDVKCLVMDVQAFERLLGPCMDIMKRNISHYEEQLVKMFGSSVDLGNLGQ

## PRKACA, catalytic subunit of protein kinase A (NanoBiT positive control) (from UniProt P17612 1-351) (natural protein)
  nanoluciferase activity (RLU): 800000 RLU
